# Experimental data taken from the DeepSol protein solubility set.
# Test: soluble on expression in E. coli; label from the status in PepcDB or PDB records
row,Sequence,soluble on expression in E. coli
1,MVEQTTSEPAAGSMPKISFGVKKREENKVQAPAKAVVIEVDLDSDEEREKNEMERAAKRRKVMHFEDGTVQGDIDKPKEAAVIPMVVEHDWRTQKLIEKEKAGTLTEEERAKLALVLPNGIDGENEEESGKGEKIVVEDGRGDTEDADYSAIPIESFGLAILRGCNWKDGDGIGKNPQKVALKLPNRRPPGLGLGATPKNPVGKNKNTGESSKAEEEKLEEIKVGSFIKVVDGRNKGVYGKVEGRDDDSNSLFIRTAIGGKTMKVSQIVAVAVSAKEYERDSKCLNKSEYDKEKDRLETERKKLESQPPSTSTSQSSKDYKSKSSSSKHDKNSSEYERNDKMWARTDLLVRFIDEDFKRGSLYEQKVRIVDVAGDNDVTIEDDRGNTHYNIRQSWLETVIPREIGEKLMIVAGKRSGQLAVMLDKDKRKEKVTARLVATNDVVTAYFEDVCSVKIRHEEDYE,not soluble
2,MGSDKIHHHHHHMSEAMQLTLPKSGSIEAYMQSAYSIPMLTAEKEHDLATRLYNENDLQAAQELIMSHLRFVIHVAKGYSGYGLPHADLVQEGNVGLMKAVKRFNPEVGVRLVSFAVHWIKAEIHEFVLKNWRIVKVATTKAQRKLFFNLRKNKKRLGWFSTEEVNTVAENLGVTTKDVMEMESRMSSHDQAFELSKDDDDNLGSSSFSPAQYLQDKQSDLAVEVENDNWDNHANKRLSTALVTLDERSQDIIKTRWLTEDKTTLQELANKYQISAERVRQLEKNALSKLKNTMVFD,not soluble
3,MSLIKLLALDMDGTLLNEAKEIPQAHITAIHKAIEKGVKLVLCTGRPLFGVLPYYKKLELDLQNEYIIVNNGCSTHQTSDWGLVDWQELSPADIEYLYDLAEKSDVQLTLFDESHYFVLGGKPNQVIENDAKLVFSDLTEISLEEATSGKFRMFQGMFLGTKEQTDDFEQRFAEELCQRFSGVRSQPVIYEAMPLGTTKATALSRLAEILKIDSSEIMAMGDANNDIEMLQFAGLGIAMGNASDYVKSLADAVTSSNEEDGVARAIEKYILEGHHHHHH,soluble
4,MQTLLLALFSLAMVQAMRDQSIAVKGRLICGDKPAANVRIKLWEEDSGPDPDDLLEAGYTDSNGEFQLSGGEAELTPIDPIFKVYHDCDDKYIPGHRKVKFLIPKSYITQGKTPKKTFDLGVLNLETIFPKEERELIVSRKRRHHPKQYINEEDSF,not soluble
5,TKDFSWNTDFTFSFYRDKWKERDENWSPNPYDMYNAPLRGYYMYLSDGLIQPGEEVSWMPGALPGQVKLKDIDGYAYNED,not soluble
6,MSLRTLPAIVMMTLYALAGLAHAQQPPWRVGFCQDTLDIPWRAAQAMTFSQTLQTDKRFQVILSDAKGNTTQQAIDLEHMVERGVHVLVTSPRDGAVLTPVISNIYRQGVPVVLLSRRTLDENFTTFIAPDDAEIGRQAARYLSKRLNEKGKILVIQGLGSASTTQQRTVGFIQELSLHPHMQIVAQPFANYKKEMAILIMESILAQKLPFDAIYVHSDAMALGAILALKRAGIDPTKLPIVSIDYTRAGRESLRKGEIDAIFTYPNGVKQGITAVKRILAGQPVNKFQTVPSTLVTQENINTLEPVEGHHHHHH,soluble
7,MGSDKIHHHHHHDLLHESYGQVVSEDYVPKTEEDVSYLVNAAYIPWRETLLQWNGVVRAQELCADQDVLPARDGIGWVDGYIYKRWHQHTWTTEDDGVLQGWERTYNGVNTCNRILSQIEEGVISVDGETKEKLIAELKVLRASYYYILIDLYGNVPIVTDFKDTSLPQQSTRKEVFDFIVKEITENMDLLSETPRGYYYGRFNKWAAHTLLAKMYLNAEVWSGTAQWQKCIDECDIVINYAEKSGEYALENNQKDVFVTHNENSKEIIFALPFDEIYVTGWNDFDFHMYTLAPENQDTYQLTARPWGGVCAVPQFINSFDEDDARLEDNYIQGQQYTYSGEILKRSIDGKPLIYTVDVPSIDQSDVDDGFRWGKFEYATGITNRLSNDWPLLRYADVLMMKAESLMRLGKSGAGALVTQVRERAFKNEPEKAQVTDAELMGGSVYDYGRRDSYKTEHDGGTDIKYGRFLDELGWEFCQEGRRRQDMIRFGIFTTKAWFSHDKSDETKNLYPIPNKVLLTNSNLKQNPGYSK,not soluble
8,MGSDKIHHHHHHMSKYDVSISVIMGVYNQNDEKVLREAVDSILNQTFKDFEFIIYDDGSQPDAALILEKIKKIDPRIVLIGQEKNHGLAFSLNACIEQARGKYIARMDADDISDPNRLKVQYDFLEKNPQYSWCGCNARLLDENGIWGTREMPEAPAEKDYLKYSPYIHPTVMYRASLFEETDGYKVSEETLLCEDYEIFMRLRQMGKRGYNIQETLFTYREDSDSYRRRDFKRGINEAKVRFENFNKLHVLFPTGWVYVFRPIIACLVPREMIYILKRMKTRKKPWKKELESELIITGK,not soluble
